Test results from patent US20240392008A1.

Molecular target: CD25 (IL-2Rα) (UniProt P01589)
Assay: cell-based or functional assay

Chain of UniProt P01589 (P01589 22-272 limits assumed): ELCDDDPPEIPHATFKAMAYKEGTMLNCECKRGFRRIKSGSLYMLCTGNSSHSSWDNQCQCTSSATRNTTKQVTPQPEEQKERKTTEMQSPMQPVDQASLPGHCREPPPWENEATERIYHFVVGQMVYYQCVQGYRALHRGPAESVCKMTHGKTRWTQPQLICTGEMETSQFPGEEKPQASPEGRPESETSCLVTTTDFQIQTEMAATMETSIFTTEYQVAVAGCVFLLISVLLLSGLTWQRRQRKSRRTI

percent of pSTAT5+ cells among Treg (flow cytometry on PBMC, 20 min): 3 log
B1: IC-T6-IC-IL2v (IL2v immunoconjugate) (protein, part only; not given: isotype control Fab and Fc chains, not shown: a dimerising Fc or GST)
chain, part: APASSSTKKTQLQLEHLLLDLQMILNGINNYKNPKLTRMLTAKFAMPKKATELKHLQCLEEELKPLEEVLNGAQSKNFHLRPRDLISNINVIVLELKGSETTFMCEYADETATIVEFLNRWITFAQSIISTLT
